Measurements: patent US20080254465, “Assays for measuring nucleic acid binding proteins and enzyme activities” (BioVeris Corporation, published 2008)

Tests used:
[1] = biological target: SP-1 (UniProt P08047 P08047:2-785); test: footprint; ECL 38880 vs 54041 unprotected; no DNase protection
Procedure: (§1) The labeled DNA substrate (50 fmol), poly dI-dC (1 ug, to reduce non-specific protein-DNA interactions) and varying amounts of recombinant NFkβ (p50 subunit) were combined in a 20 uL volume and incubated for 30 min. at room temperature. Dnase 1 (2 Units in a volume of 2 uL, Promega Corp.) was then added and the incubation was continued for an additional 30 min. at room temperature. The reaction was terminated and the biotin-labeled DNA sequences captured by in the addition of 10 µg of streptavidin Dynabeads (IGEN, International) in 0.3 ml PBS-1 containing 0.2 M EDTA, followed by incubation for 15 minutes. The reaction mixture was introduced into an ORIGEN Analyzer (IGEN International) running in Magnetic Capture Mode and the ECL signal from RuBpy on the magnetic beads was determined in the presence of a solution containing tripropylamine (ORIGEN Assay Buffer, IGEN International). A control was also run in the absence of Dnase to determine the ECL signal obtained from the uncleaved substrate. […]
(§2) The specificity of the assay was determined by replacing the specific binding protein NFkβ with other DNA binding proteins specific for sequences not present on the DNA substrate (the phosphorothioate containing substrate was used).

[2] = biological target: T1, NF-kB p50 subunit (UniProt P19838 P19838:1-433); test: footprint; DNase I protection with ECL readout; dose dependent, signal 1729305 at 7 ng vs 96862 unprotected and 2591957 without DNase; poly dI-dC, room temperature; settings: tags: recombinant, Promega; chain copies: 2 inferred
Procedure: (§3) The labeled DNA substrate (50 fmol), poly dI-dC (1 ug, to reduce non-specific protein-DNA interactions) and varying amounts of recombinant NFkβ (p50 subunit) were combined in a 20 uL volume and incubated for 30 min. at room temperature. Dnase 1 (2 Units in a volume of 2 uL, Promega Corp.) was then added and the incubation was continued for an additional 30 min. at room temperature. The reaction was terminated and the biotin-labeled DNA sequences captured by in the addition of 10 µg of streptavidin Dynabeads (IGEN, International) in 0.3 ml PBS-1 containing 0.2 M EDTA, followed by incubation for 15 minutes. The reaction mixture was introduced into an ORIGEN Analyzer (IGEN International) running in Magnetic Capture Mode and the ECL signal from RuBpy on the magnetic beads was determined in the presence of a solution containing tripropylamine (ORIGEN Assay Buffer, IGEN International). A control was also run in the absence of Dnase to determine the ECL signal obtained from the uncleaved substrate. […] The addition of NFkβ gave a dose dependent increase in signal relative to that obtained from unprotected DNA, the magnitude of which approached, for high concentrations of NFkβ, the signal obtained in the absence of DNAse. The experiment was repeated with an DNA substrate with the same nucleotide sequence but containing only phosphodiester linkages and similar results were obtained.

[3] = biological target: AP-2 (UniProt P05549 P05549:1-437); test: footprint; ECL 32289 vs 54041 unprotected; no DNase protection; settings: chain copies: 2
Procedure: as §1, §2

[4] = biological target: T1, NF-kB p50 subunit; test: footprint; DNase I protection, similar results to phosphorothioate substrate; settings: tags: recombinant, Promega; chain copies: 2 inferred
Procedure: as §3

T1 sequence (P19838 1-433, one chain of several): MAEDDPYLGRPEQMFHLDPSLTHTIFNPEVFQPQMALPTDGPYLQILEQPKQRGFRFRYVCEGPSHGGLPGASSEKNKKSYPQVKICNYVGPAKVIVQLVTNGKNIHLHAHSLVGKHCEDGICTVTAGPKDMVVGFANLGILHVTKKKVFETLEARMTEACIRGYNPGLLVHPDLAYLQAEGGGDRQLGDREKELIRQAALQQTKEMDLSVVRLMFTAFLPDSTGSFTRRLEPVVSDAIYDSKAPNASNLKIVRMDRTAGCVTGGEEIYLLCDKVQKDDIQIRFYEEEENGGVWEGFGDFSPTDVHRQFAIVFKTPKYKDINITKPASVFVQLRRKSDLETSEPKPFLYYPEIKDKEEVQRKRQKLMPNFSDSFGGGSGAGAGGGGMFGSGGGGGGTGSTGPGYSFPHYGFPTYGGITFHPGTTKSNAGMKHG
SP-1, sequence (P08047 2-785, one chain of several): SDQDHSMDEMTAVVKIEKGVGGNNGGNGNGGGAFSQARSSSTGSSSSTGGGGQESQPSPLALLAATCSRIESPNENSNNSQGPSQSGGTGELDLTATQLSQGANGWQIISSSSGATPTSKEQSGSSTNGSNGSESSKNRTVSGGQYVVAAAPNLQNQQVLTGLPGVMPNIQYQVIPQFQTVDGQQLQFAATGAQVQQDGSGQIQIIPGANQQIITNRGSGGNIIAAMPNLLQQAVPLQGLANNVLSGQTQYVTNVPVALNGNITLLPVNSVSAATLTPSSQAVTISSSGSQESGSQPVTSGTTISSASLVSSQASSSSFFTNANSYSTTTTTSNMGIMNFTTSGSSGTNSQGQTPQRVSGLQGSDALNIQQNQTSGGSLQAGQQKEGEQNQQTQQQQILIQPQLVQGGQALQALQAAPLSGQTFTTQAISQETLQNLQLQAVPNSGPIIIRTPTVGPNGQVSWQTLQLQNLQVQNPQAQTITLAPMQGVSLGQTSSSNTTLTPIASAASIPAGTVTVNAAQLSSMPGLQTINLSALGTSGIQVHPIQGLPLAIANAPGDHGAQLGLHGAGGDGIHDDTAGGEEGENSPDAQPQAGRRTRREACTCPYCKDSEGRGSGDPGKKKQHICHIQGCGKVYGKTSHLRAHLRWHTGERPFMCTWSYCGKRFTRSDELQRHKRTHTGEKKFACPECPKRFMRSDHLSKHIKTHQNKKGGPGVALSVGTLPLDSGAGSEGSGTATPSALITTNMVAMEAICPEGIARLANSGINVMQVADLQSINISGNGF
AP-2, sequence (P05549 whole entry, one chain of several): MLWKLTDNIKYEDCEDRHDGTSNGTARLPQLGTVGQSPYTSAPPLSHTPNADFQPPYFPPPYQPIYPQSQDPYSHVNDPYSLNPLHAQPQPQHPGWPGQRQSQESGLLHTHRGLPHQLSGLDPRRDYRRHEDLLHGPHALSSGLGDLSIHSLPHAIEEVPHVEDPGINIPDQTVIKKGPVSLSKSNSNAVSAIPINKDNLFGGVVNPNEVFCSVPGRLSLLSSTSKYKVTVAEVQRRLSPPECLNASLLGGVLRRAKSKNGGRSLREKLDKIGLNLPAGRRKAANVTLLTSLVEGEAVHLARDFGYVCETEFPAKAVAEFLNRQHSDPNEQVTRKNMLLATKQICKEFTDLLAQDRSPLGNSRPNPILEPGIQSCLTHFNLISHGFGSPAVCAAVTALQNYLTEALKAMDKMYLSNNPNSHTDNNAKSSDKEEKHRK

Row | Binder | binding result [1] | binding result [2] | binding result [3] | binding result [4]
1 | NF-kB consensus substrate, phosphorothioate (dsDNA, PS within bracketed nucleotides AGTTGAGG (5') and CCCAGGC (3') of the labelled strand) DNA 1: AGTTGAGGGGACTTTCCCAGGC DNA 2: GCCTGGGAAAGTCCCCTCAACT | no binding | binds | no binding | 
2 | NF-kB consensus substrate, all phosphodiester (dsDNA) DNA 1: AGTTGAGGGGACTTTCCCAGGC DNA 2: GCCTGGGAAAGTCCCCTCAACT |  |  |  | binds
